Assay results: US20220259330A1 (SUNSHINE GUOJIAN PHARMACEUTICAL SHANGHAI, published 2022)
Values joined by “and” are separate entries in the source; they are usually repeats but may differ in a detail not shown here. Equal values may be shown once.

Key:
[1] = molecular target: TGF-β1 (Sino Biological, Cat. No. 10804-HNAC) (UniProt P01137 279-390); assay: ELISA, plate coated with TGF-β1
CD137-ECD-Fc = molecular target: T1, CD137-ECD-Fc (human, UniProt Q07011 24-186); assay: ELISA, plate coated with CD137-ECD-Fc
T1 construct: extracellular domain; Bought; also called recombinant protein of the extracellular segment of human CD137 with Fc tags (Sino Biological 10041-H02H); not shown: Fc tag

HER2-ECD-His = molecular target: T2, HER2-ECD-His (human, UniProt P04626 23-652); assay: ELISA, plate coated with HER2-ECD-His
T2 construct: extracellular domain; Bought; also called recombinant protein of the extracellular segment of human Her-2 with a polyhistidine tag (ACROBiosystems HE2-H5225); not shown: polyhistidine tag

PD1-His = molecular target: T3, PD1-His (human, UniProt Q15116 25-170); assay: ELISA, plate coated with PD1-His
T3 construct: extracellular domain; In-house protein; also called extracellular domain protein of human PD-1 with a 6*His tag
T3 sequence (Q15116 other isoform, or with tags, fused parts or gaps): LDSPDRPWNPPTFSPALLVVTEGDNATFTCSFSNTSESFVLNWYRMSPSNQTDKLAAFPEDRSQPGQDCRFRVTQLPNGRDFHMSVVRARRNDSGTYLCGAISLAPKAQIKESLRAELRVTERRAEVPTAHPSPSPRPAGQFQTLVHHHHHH

T1 sequence (Q07011 24-186): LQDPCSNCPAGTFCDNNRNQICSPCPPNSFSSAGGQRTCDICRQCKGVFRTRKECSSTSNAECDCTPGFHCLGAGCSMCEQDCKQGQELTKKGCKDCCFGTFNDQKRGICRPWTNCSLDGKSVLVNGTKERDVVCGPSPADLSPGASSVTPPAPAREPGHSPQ
TGF-β1 (Sino Biological, Cat. No. 10804-HNAC), sequence (P01137 279-390 limits assumed): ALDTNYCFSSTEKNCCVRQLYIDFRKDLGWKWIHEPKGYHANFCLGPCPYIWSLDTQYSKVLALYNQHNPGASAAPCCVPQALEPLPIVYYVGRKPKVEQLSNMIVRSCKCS

Binder	EC50 [1]	EC50 (PD1-His)	also measured
mAb127 (antibody, human IgG4 S228P, kappa, V domains shown, Anti-TGF-β, IgG4 (S228P), kappa; also called mAb127-HC+mAb127-LC) VH: QVQLVQSGAEVKKPGASVKVSCKASGYTFTSEWMNWVRQAPGQGLEWMGQIFPALGSTNYNEMYEGRVTMTTDTSTSTAYMELRSLRSDDTAVYYCARGIGNYALDAMDYWGQGTLVTVSS VL: DIQMTQSPSSLSASVGDRVTITCRASESVDFYGNSFMHWYQQKPGKAPKLLIYLASNLESGVPSRFSGSGSGTDFTLTISSLQPEDFATYYCQQNIEDPLTFGGGTKVEIKR	0.0414 nM		
94-Fab-19H6-IgG1-LALA (bispecific antibody) heavy: not shown light: DVVMTQSPLSLPVTLGQPASISCRSSQSLVHSNGNTYLHWYQQRPGQSPRLLIYKVSNRFSGVPDRFSGSGSGTDFTLKISRVEAEDVGVYFCSQSTHIPWTFGQGTKVEIKRTVAAPSVFIFPPSDEQLKSGTASVVCLLNNFYPREAKVQWKVDNALQSGNSQESVTEQDSKDSTYSLSSTLTLSKADYEKHKVYACEVTHQGLSSPVTKSFNRGEC			EC50 (CD137-ECD-Fc): 0.241 nM; EC50 (HER2-ECD-His): 0.158 nM
19H6-Fab-94-IgG1-LALA (bispecific antibody) heavy: not shown light: DVVMTQSPLSLPVTLGQPASISCRSSQSLVHSNGNTYLHWYQQRPGQSPRLLIYKVSNRFSGVPDRFSGSGSGTDFTLKISRVEAEDVGVYFCSQSTHIPWTFGQGTKVEIKRTVAAPSVFIFPPSDEQLKSGTASVVCLLNNFYPREAKVQWKVDNALQSGNSQESVTEQDSKDSTYSLSSTLTLSKADYEKHKVYACEVTHQGLSSPVTKSFNRGEC			EC50 (CD137-ECD-Fc): 27.6 nM; EC50 (HER2-ECD-His): 0.12 nM
127-Fab-14-IgG4 (bispecific antibody) heavy: not shown light: DIVLTQSPASLAVSPGQRATITCRASESVDNYGNSFMNWYQQKPGQPPKPLIYFASNLESGVPARFSGSGSRTDFTLTINPVEADDTANYYCQQNNEAPPTFGQGTKVEIKRTVAAPSVFIFPPSDEQLKSGTASVVCLLNNFYPREAKVQWKVDNALQSGNSQESVTEQDSKDSTYSLSSTLTLSKADYEKHKVYACEVTHQGLSSPVTKSFNRGEC	0.108 nM	3.96 nM	
19H6-Hu-HC+94-Hu-LC (antibody, human IgG1, kappa, V domains shown, Hybrid antibody) VH: QVQLVQSGAEVKKPGASVKVSCKGSGYTFTDYAIHWVRQAPGQSLEWIGVFSIYYENINYNQKFKGRATMTVDKSTSTAYMELRSLRSDDTAVYYCARRDGGTINYWGQGTLVTVSS VL: DVVMTQSPLSLPVTLGQPASISCRSSQSLLHSNGNTYLHWYQQRPGQSPRLLFYKVSNRFSGVPDRFSGSGSGTDFTLKISRVEAEDVGVYFCSQSTHVPWTFGQGTKVEIKR			binding result (CD137-ECD-Fc): no binding; EC50 (HER2-ECD-His): 0.139 nM
94-Hu (antibody, human IgG1, kappa, V domains shown, Humanized anti-human CD137, IgG1, kappa; also called 94-Hu-HC+94-Hu-LC) VH: QVQLQESGPGLVKPSETLSLTCTVSGFSLSSYDISWIRQPPGKGLEWLGVIWTGGGTNYNSAFMSRLTISKDNSKSQVSLKLSSVTAADTAVYYCVRMDYWGQGTLVTVSS VL: DVVMTQSPLSLPVTLGQPASISCRSSQSLLHSNGNTYLHWYQQRPGQSPRLLFYKVSNRFSGVPDRFSGSGSGTDFTLKISRVEAEDVGVYFCSQSTHVPWTFGQGTKVEIKR			EC50 (CD137-ECD-Fc): 0.391 nM; binding result (HER2-ECD-His): no binding
94-Hu-HC+19H6-Hu-LC (antibody, human IgG1, kappa, V domains shown, Hybrid antibody) VH: QVQLQESGPGLVKPSETLSLTCTVSGFSLSSYDISWIRQPPGKGLEWLGVIWTGGGTNYNSAFMSRLTISKDNSKSQVSLKLSSVTAADTAVYYCVRMDYWGQGTLVTVSS VL: DVVMTQSPLSLPVTLGQPASISCRSSQSLVHSNGNTYLHWYQQRPGQSPRLLIYKVSNRFSGVPDRFSGSGSGTDFTLKISRVEAEDVGVYFCSQSTHIPWTFGQGTKVEIKR			EC50 (CD137-ECD-Fc): 0.634 nM; binding result (HER2-ECD-His): no binding
20-Hu-HC+601-LC-T93N (antibody, human IgG4 S228P, kappa, V domains shown) VH: EVQLVESGGGLVQPGGSLRLSCAASGFVFSNYDMSWVRQAPGKRLEWVATISGGGGYTYYSDSVKGRFTISRDNAKNSLYLQMNSLRAEDTAVYYCASPYGHYGFEYWGQGTLVTVSS VL: DIQMTQSPSSLSASVGDRVTITCSASQDISNYLNWYQQKPGKAPKVLIYFTSSLHSGVPSRFSGSGSGTDFTLTISSLQPEDFATYYCQQYSNVPWTFGQGTKVEIKR		0.486 nM	
20-Hu-HC+601-LC-N34S (antibody, human IgG4 S228P, kappa, V domains shown) VH: EVQLVESGGGLVQPGGSLRLSCAASGFVFSNYDMSWVRQAPGKRLEWVATISGGGGYTYYSDSVKGRFTISRDNAKNSLYLQMNSLRAEDTAVYYCASPYGHYGFEYWGQGTLVTVSS VL: DIQMTQSPSSLSASVGDRVTITCSASQDISNYLSWYQQKPGKAPKVLIYFTSSLHSGVPSRFSGSGSGTDFTLTISSLQPEDFATYYCQQYSTVPWTFGQGTKVEIKR		0.175 nM	
14-Hu-HC+1D11-Hu-LC (antibody, human IgG4 S228P, kappa, V domains shown, Hybrid antibody) VH: QVQLVQSGAEVKKPGASVKVSCKASGYSFTGYTMNWVRQAPGQGLEWIGLINPYNGDTSYNQKFKGRATVTVDKSTSTAYMELSSLRSEDTAVYYCARWRYTMDYWGQGTLVTVSS VL: DIVLTQSPASLAVSPGQRATITCRASESVDSYGNSFMHWYQQKPGQPPKLLIYLASNLESGVPARFSGSGSGTDFTLTINPVEADDTANYYCQQNNEDPLTFGGGTKVELKR			binding result [1]: no binding; binding result (PD1-His): no binding
1D11-Hu (antibody, human IgG4 S228P, kappa, V domains shown, Humanized anti-TGF-β, IgG4 (S228P), kappa; also called 1D11-Hu-HC+1D11-Hu-LC) VH: QVQLVQSGAEVKKPGASVKVSCKASGYIFITYWMNWVRQAPGQGLEWIGQIFPASGSTNYNEMFEGRATLTVDTSTSTAYMELSSLRSEDTAVYYCARGDGNYALDAMDYWGQGTLVTVSS VL: DIVLTQSPASLAVSPGQRATITCRASESVDSYGNSFMHWYQQKPGQPPKLLIYLASNLESGVPARFSGSGSGTDFTLTINPVEADDTANYYCQQNNEDPLTFGGGTKVELKR	0.0662 nM and 0.134 nM		binding result (PD1-His): no binding
1D11-Hu-HC+14-Hu-LC (antibody, human IgG4 S228P, kappa, V domains shown, Hybrid antibody) VH: QVQLVQSGAEVKKPGASVKVSCKASGYIFITYWMNWVRQAPGQGLEWIGQIFPASGSTNYNEMFEGRATLTVDTSTSTAYMELSSLRSEDTAVYYCARGDGNYALDAMDYWGQGTLVTVSS VL: DIVLTQSPASLAVSPGQRATITCRASESVDNYGNSFMNWYQQKPGQPPKPLIYFASNLESGVPARFSGSGSRTDFTLTINPVEADDTANYYCQQNNEAPPTFGQGTKVEIKR	0.525 nM and 1.27 nM		binding result (PD1-His): no binding

Continued, in another order:

EC50 [1]	EC50 (PD1-His)	Binder	also measured
0.699 nM	0.437 nM	14-Fab-1D11-IgG4 (bispecific antibody) heavy: not shown light: DIVLTQSPASLAVSPGQRATITCRASESVDNYGNSFMNWYQQKPGQPPKPLIYFASNLESGVPARFSGSGSRTDFTLTINPVEADDTANYYCQQNNEAPPTFGQGTKVEIKRTVAAPSVFIFPPSDEQLKSGTASVVCLLNNFYPREAKVQWKVDNALQSGNSQESVTEQDSKDSTYSLSSTLTLSKADYEKHKVYACEVTHQGLSSPVTKSFNRGEC	
0.363 nM	2 nM	1D11-Fab-14-IgG4 (bispecific antibody) heavy: not shown light: DIVLTQSPASLAVSPGQRATITCRASESVDNYGNSFMNWYQQKPGQPPKPLIYFASNLESGVPARFSGSGSRTDFTLTINPVEADDTANYYCQQNNEAPPTFGQGTKVEIKRTVAAPSVFIFPPSDEQLKSGTASVVCLLNNFYPREAKVQWKVDNALQSGNSQESVTEQDSKDSTYSLSSTLTLSKADYEKHKVYACEVTHQGLSSPVTKSFNRGEC	
	0.485 nM	20-Hu-HC+601-LC-D28G (antibody, human IgG4 S228P, kappa, V domains shown) VH: EVQLVESGGGLVQPGGSLRLSCAASGFVFSNYDMSWVRQAPGKRLEWVATISGGGGYTYYSDSVKGRFTISRDNAKNSLYLQMNSLRAEDTAVYYCASPYGHYGFEYWGQGTLVTVSS VL: DIQMTQSPSSLSASVGDRVTITCSASQGISNYLNWYQQKPGKAPKVLIYFTSSLHSGVPSRFSGSGSGTDFTLTISSLQPEDFATYYCQQYSTVPWTFGQGTKVEIKR	
	0.456 nM	20-Hu-HC+601-LC-Y32F (antibody, human IgG4 S228P, kappa, V domains shown) VH: EVQLVESGGGLVQPGGSLRLSCAASGFVFSNYDMSWVRQAPGKRLEWVATISGGGGYTYYSDSVKGRFTISRDNAKNSLYLQMNSLRAEDTAVYYCASPYGHYGFEYWGQGTLVTVSS VL: DIQMTQSPSSLSASVGDRVTITCSASQDISNFLNWYQQKPGKAPKVLIYFTSSLHSGVPSRFSGSGSGTDFTLTISSLQPEDFATYYCQQYSTVPWTFGQGTKVEIKR	
	0.525 nM	20-Hu-HC+601-LC-F50Y (antibody, human IgG4 S228P, kappa, V domains shown) VH: EVQLVESGGGLVQPGGSLRLSCAASGFVFSNYDMSWVRQAPGKRLEWVATISGGGGYTYYSDSVKGRFTISRDNAKNSLYLQMNSLRAEDTAVYYCASPYGHYGFEYWGQGTLVTVSS VL: DIQMTQSPSSLSASVGDRVTITCSASQDISNYLNWYQQKPGKAPKVLIYYTSSLHSGVPSRFSGSGSGTDFTLTISSLQPEDFATYYCQQYSTVPWTFGQGTKVEIKR	
	0.533 nM	20-Hu-HC+601-LC-V46L (antibody, human IgG4 S228P, kappa, V domains shown) VH: EVQLVESGGGLVQPGGSLRLSCAASGFVFSNYDMSWVRQAPGKRLEWVATISGGGGYTYYSDSVKGRFTISRDNAKNSLYLQMNSLRAEDTAVYYCASPYGHYGFEYWGQGTLVTVSS VL: DIQMTQSPSSLSASVGDRVTITCSASQDISNYLNWYQQKPGKAPKLLIYFTSSLHSGVPSRFSGSGSGTDFTLTISSLQPEDFATYYCQQYSTVPWTFGQGTKVEIKR	
	1.03 nM	20-Hu-HC+601-LC-F71Y (antibody, human IgG4 S228P, kappa, V domains shown) VH: EVQLVESGGGLVQPGGSLRLSCAASGFVFSNYDMSWVRQAPGKRLEWVATISGGGGYTYYSDSVKGRFTISRDNAKNSLYLQMNSLRAEDTAVYYCASPYGHYGFEYWGQGTLVTVSS VL: DIQMTQSPSSLSASVGDRVTITCSASQDISNYLNWYQQKPGKAPKVLIYFTSSLHSGVPSRFSGSGSGTDYTLTISSLQPEDFATYYCQQYSTVPWTFGQGTKVEIKR	
